Reference: paper doi:10.1101/2024.07.03.601496

How the values were obtained:
[1] = molecular target: Hth (for EMSA) (Drosophila) (UniProt O46339); assay: native gel or EMSA
[2] = molecular target: Exd (for EMSA) (Drosophila) (UniProt P40427); assay: native gel or EMSA
UniProt P40427, sequence (P40427 whole entry): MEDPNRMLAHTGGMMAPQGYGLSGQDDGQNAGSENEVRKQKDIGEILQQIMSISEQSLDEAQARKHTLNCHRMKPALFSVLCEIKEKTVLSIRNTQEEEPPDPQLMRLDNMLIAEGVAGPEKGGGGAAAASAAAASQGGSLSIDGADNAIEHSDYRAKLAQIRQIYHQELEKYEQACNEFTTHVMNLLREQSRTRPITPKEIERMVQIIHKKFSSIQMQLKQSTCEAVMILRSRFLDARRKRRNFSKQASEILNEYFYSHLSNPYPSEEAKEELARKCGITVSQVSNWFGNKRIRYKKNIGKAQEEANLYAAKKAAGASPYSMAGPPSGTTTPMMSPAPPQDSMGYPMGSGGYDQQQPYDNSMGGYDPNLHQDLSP

UniProt O46339, sequence (O46339 whole entry): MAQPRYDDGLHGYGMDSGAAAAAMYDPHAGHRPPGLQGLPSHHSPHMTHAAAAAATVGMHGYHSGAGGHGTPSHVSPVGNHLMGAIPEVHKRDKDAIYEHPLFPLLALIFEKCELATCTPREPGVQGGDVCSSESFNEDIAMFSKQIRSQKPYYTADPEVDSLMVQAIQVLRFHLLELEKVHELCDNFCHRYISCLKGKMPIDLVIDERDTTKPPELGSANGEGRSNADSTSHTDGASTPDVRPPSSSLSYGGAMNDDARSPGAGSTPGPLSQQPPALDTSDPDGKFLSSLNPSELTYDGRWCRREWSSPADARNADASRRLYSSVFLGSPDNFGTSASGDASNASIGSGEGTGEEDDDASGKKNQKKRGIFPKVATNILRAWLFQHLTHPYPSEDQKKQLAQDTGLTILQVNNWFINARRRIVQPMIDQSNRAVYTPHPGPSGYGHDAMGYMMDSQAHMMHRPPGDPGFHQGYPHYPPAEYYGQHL

Substance	percent reduction of the trimeric complex against wild type Abd-B [1]	percent reduction of the trimeric complex against wild type Abd-B [2]
Abd-B^QR (QR>AA, for EMSA) (from UniProt P09087 1-493) (natural protein)	25%	25%
Abd-B^W (W>A, for EMSA) (from UniProt P09087 1-493) (natural protein)	56%	56%
